In patent publication US6805863B2, “Methods of modulating immune coagulation” (Trillium Therapeutics Inc., priority 1997, dated 2004):
Where “and” joins values, the source holds several entries; their conditions need not be identical. Equal entries are not always repeated. Marks after values point to notes of the source that are not given here.

Columns and labels:
DBA/2-mated CBA/J mice = experiment: Fetal loss in DBA/2-mated CBA/J mice: role of asialoGM1+ NK cells, macrophages and cytokines; format: in vivo, mouse
Excerpt: Inbred mice of strains CBA/J and DBA/2 were obtained from Iffa Credo. France C57B1/6J and DBA/2 mice were obtained from the Jackson Laboratories, Bar Harbor, Me. C57B1/6 mice with knockout of the interferon response element IRF-1 were generated as previously described (Duncan, G. S. et al., J. Exp. Med. 184:2043 (1996)) and bred in at the Ontario Cancer Institute, Toronto. CBA/J mice were maintained in the Paris colony under conventional open-top wire cage conditions with food and water ad lib and a 12 hour light-dark cycle. Mice in the Toronto colony were maintained in a barrier facility. Female CBA/J, C57B1/6 or C57B1/6 IRF−/− mice were mated by overnight cohabitation with a DBA/2J male, and the morning of sighting a vaginal plug was defined as day 0.5 of pregnancy.
Pregnant CBA/J mice were depleted of NK cells by injection of 1 ml rabbit IgG anti-asialoGM1 antibody (Immunocorp, Richmond, Va.) ip on day 6.5 of gestation; phosphate buffered saline (PBS) was used as a control as it has been previously shown to be equivalent to non-immune rabbit IgG (Clark, D. A., Crit. Rev. Immunol. 11:215 (1991)). Macrophage depletion was performed by ip injection of 100 mg/kg silicon dioxide twice a week for 4 weeks prior to mating, as described in Baek, H-S. and J-W. Yoon (J. Virol. 64:5708 (1990)). Affinity-purified rabbit IgG neutralizing antibody to mouse procoagulant (fg12-prothombinase) was prepared as previously described (Ding, J. W. et al., J. Exp. Med. (1997); Dackiw, A. P. B. et al., Arch. Surg. 131:1273 (1996)); the mice were given a ip injection of 200 μl of a 1/50 dilution of a 5.5 mg/ml preparation of anti-prothombinase or control rabbit antibody each day beginning on day 3.5 of gestation. Hormonal support of pregnancy sufficient to replace ovarian function was provided in some experiments by injecting 6.7 ng 17 β-estradiol+1 mg progesterone in 0.1 ml oil im daily beginning on day 4.5 of gestation (Michael, S. D. et al., Biol. Reprod. 12:400 (1975)). One hundred […] of rat monoclonal IgG2b anti-mouse granulocyte antibody RB6-8C5 (Pharmingen) (Stoppacciaro, A. et al., J. Exp. Med. 178:151 (1993)) or isotype control was injected ip on either day 6.5 or on day 8.5 of pregnancy. TNF-α (6 and R&D Systems) 1000 or 2000 units and/or murine recombinant γ-interferon (6 and R&D Systems) 1000 units was injected ip on day 7.5 of pregnancy. On day 13.5 of pregnancy, the mice were sacrificed and the number of resorbing and healthy embryos was counted. In some experiments, the uteri were snap frozen, 5 micron sections were cut, and the tissues were stained with rat monoclonal F4/80 antibody (Caltag, Tebu, France) to macrophages. Briefly, tissue sections were incubated with a 1/30 dilution of F4/80 in PBS for 30 minutes, and binding was detected using peroxidase-streptavidin with biotin-labelled anti-rat IgG2b second antibody (Secrotec) (Kachkache, M. et al., Biol. Reprod. 45:860 (1991)).
Four to ten mated mice per treatment group were used. The significance of differences in the pooled resorption rate was tested by c^2 of Fisher's Exact test where appropriate.

[1] = tested on: recalcified platelet-poor normal human plasma; experiment: One-stage clotting assay (procoagulant activity, PCA); format: biochemical
Experimental: This assay for fg12 prothrombinase was used to directly measure procoagulant activity. High 5 cells infected with recombinant virus expressing the mfg12 fusion protein were subjected to cycles of freeze thawing. They were then assayed for their ability to accelerate the spontaneous clotting time of recalcified platelet-poor normal human plasma as previously described (Levy & Edgington, 1980). Results were quantitated by comparison with serial dilutions of standard rabbit brain thromboplastin. Activities from cells infected with the recombinant virus were compared with those uninfected and wild-type virus infected, and with the purified protein alone. Proteins involved in the coagulation pathway require a phospholipid bilayer for functional activity; therefore purified protein was reconstituted into […] to determine their PCA activity. Additional PCA assays were performed with human plasma deficient in coagulation factors II, V, VII, VIII, X, and XII to determine the nature (factor dependence) of the expressed PCA.

125I-prothrombin = experiment: Prothrombin cleavage assay; format: biochemical; conditions: FIG. 22
Experimental: To determine if the expressed fusion protein acts as a direct prothrombinase, the prothrombin cleavage assay was performed as previously described (Schwartz et al., 1982). 125I-prothrombin was incubated with High 5 cells, both infected or uninfected with the recombinant virus. Purified mfg12 fusion protein was also studied to determine its ability to cleave prothrombin. Human Factor Xa in the presence of Russell's viper venom (RVV) was used as a positive control. Samples were run on 10% SDS-PAGE and analyzed by autoradiography for 125I-prothrombin and their cleavage products.

[2] = Expt 1, anti-asialoGM1 pretreated (NK depleted) mice, 1000 u day 7.5
[3] = Expt 1, anti-asialoGM1 pretreated (NK depleted) mice, 2000 u day 7.5
[4] = Expt 1, day 6.5 PBS, 1000 u ip day 7.5, day 13.5 assay
[5] = Expt 1, day 6.5 PBS, 2000 u ip day 7.5, day 13.5 assay
[6] = Expt 2, anti-asialoGM1 pretreated (NK depleted) mice, 1000 u IFN-γ, TNF-α 1000 u or 2000 u pooled
[7] = Expt 2, day 6.5 PBS, 1000 u IFN-γ, TNF-α 1000 u or 2000 u pooled, day 7.5
[8] = Table 9, 20 ng added to H5 cells + RV
[9] = Table 9, 100 ng added to H5 cells + RV
[10] = Table 9, 3 μg reconstituted into H5 cells
[11] = Table 9, purified protein 3 μg alone

Molecule: TNF-α
- % fetal losses (DBA/2-mated CBA/J mice; [2]): 16%^e
- resorptions/total (DBA/2-mated CBA/J mice; [2]): 12/63
- % fetal losses (DBA/2-mated CBA/J mice; [3]): 22%^e
- resorptions/total (DBA/2-mated CBA/J mice; [3]): 12/55
- % fetal losses (DBA/2-mated CBA/J mice; [4]): 72%^b
- resorptions/total (DBA/2-mated CBA/J mice; [4]): 43/60
- % fetal losses (DBA/2-mated CBA/J mice; [5]): 89%^c
- resorptions/total (DBA/2-mated CBA/J mice; [5]): 57/64

B1: IFN-γ: murine recombinant γ-interferon (protein, UniProt P01580 23-155, looked up)
Interferon gamma: HGTVIESLESLNNYFNSSGIDVEEKSLFLDIWRNWQKDGDMKILQSQIISFYLRLFEVLKDNQAISNNISVIESHLITTFFSNSKAKKDAFMSIAKFEVNNPQVQRQAFNELIRVVHQLLPESSLRKRKRSRC
- % fetal losses (DBA/2-mated CBA/J mice; [6]): 12%^e
- resorptions/total (DBA/2-mated CBA/J mice; [6]): 12/98
- % fetal losses (DBA/2-mated CBA/J mice; [7]): 85%^g
- resorptions/total (DBA/2-mated CBA/J mice; [7]): 79/93

B2: Purified protein: purified murine fg12 fusion protein with six histidine residues and an enterokinase site at the N-terminus, baculovirus expressed (protein)
chain: VEEHNLTEGLEDASAQAACPARLEGSGRCEGSQCPFQLTLPTLTIQLPRQLGSMEEVLKEVRTLKEAVDSLKKSCQDCKLQADDHRDPGGNGGNGAETAEDSRVQELESQVNKLSSELKNAKDQIQGLQGRLETLHLVNMNNIENYVDNKVANLTVVVNSLDGKCSKCPSQEHMQSQPVQHLIYKDCSDHYVLGRRSSGAYRVTPDHRNSSFEVYCDMETMGGGWTVLQARLDGSTNFTREWKDYKAGFGNLEREFWLGNDKIHLLTKSKEMILRIDLEDFNGLTLYALYDQFYVANEFLKYRLHIGNYNGTAGDALRFSRHYNHDLRFFTTPDRDNDRYPSGNCGLYYSSGWWFDSCLSANLNGKYYHQKYKGVRNGIFWGTWPGINQAQPGGYKSSFKQAKMMIRPKNFKP
modifications: left off: small tags and cut ends
notes: purified murine fg12 fusion protein with six histidine residues and an enterokinase site at the N-terminus, baculovirus expressed
- PCA ([1]; Table 7, purified protein 3 μg, uninfected High 5 cells <1): <1 Miliunits/2 × 10^6 cells
- PCA Time ([1]; Table 7, purified protein 3 μg, uninfected High 5 cells >240): 220 s
- PCA Milliunits [1, 8]: 1254 mU/2 × 10^6 cells
- PCA Time [1, 8]: 57 s
- PCA Milliunits [1, 9]: 1543 mU/2 × 10^6 cells
- PCA Time [1, 9]: 54 s
- PCA Time ([1]; Table 9, 3 μg added to H5 cells + RV (printed for two lines)): 50 s and 34 s
- PCA Milliunits [1, 10]: 3634 mU/2 × 10^6 cells
- PCA Time [1, 10]: 42 s
- PCA Milliunits [1, 11]: <1 mU/2 × 10^6 cells
- PCA Time [1, 11]: 220 s
- PCA after reconstitution of purified protein into insect cells ([1]; preliminary results): partial PCA activity recovery
- PCA detected ([1]; purified soluble protein alone): no activity
- prevention of PCA expression by cells infected with recombinant virus ([1]; soluble mfg12 protein added to cell lysate): incapable of preventing the clotting induced by the cell lysate
- cleavage of 125I-prothrombin (SDS-PAGE autoradiography) (125I-prothrombin): no prothrombin cleavage
